In US20030203841A1 (US Dept. of Health and Human Services, published 2003):
Where no end group is shown, it is not given here. The star is where a group is joined. For = O=C*

T1: epitope tagged N-formyl peptide receptor (FPR) on ETFR cells (stably transfected rat basophilic leukemia … (human, UniProt P21462 1-350))
T1 sequence: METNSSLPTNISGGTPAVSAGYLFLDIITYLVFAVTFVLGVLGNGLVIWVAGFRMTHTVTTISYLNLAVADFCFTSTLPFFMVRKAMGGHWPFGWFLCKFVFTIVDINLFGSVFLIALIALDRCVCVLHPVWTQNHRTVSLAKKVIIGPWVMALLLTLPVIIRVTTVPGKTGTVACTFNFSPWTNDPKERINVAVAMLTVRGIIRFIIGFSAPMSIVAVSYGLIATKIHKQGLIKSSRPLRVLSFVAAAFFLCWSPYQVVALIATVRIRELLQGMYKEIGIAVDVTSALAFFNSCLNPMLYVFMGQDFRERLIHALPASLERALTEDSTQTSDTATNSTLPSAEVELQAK

T2: FPR-like receptor 1 (FPRL1) on transfected human embryonic kidney 293 cells (FPRL1/293 cells) (human, UniProt P25090 1-351)
T2 sequence: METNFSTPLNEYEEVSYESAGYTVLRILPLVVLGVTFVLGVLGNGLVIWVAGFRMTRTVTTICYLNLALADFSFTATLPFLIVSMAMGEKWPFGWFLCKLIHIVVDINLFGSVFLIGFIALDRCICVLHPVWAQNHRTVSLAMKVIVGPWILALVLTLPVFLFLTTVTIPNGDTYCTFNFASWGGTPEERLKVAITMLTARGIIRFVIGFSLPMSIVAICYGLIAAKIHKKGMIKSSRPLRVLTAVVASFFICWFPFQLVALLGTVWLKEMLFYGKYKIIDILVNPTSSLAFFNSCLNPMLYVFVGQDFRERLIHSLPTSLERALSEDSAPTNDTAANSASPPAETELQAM


Experiments:
[1] = target: epitope tagged N-formyl peptide receptor (FPR) on ETFR cells (stably transfected rat basophilic leukemia cells) (human) (UniProt P21462); experiment: competition of unlabeled fMLP with ^3H-fMLP for binding to FPR expressing ETFR cells, filtration, 20 min at 37 C
[2] = target: epitope tagged N-formyl peptide receptor (FPR) on ETFR cells (stably transfected rat basophilic leukemia cells) (human) (UniProt P21462); experiment: cell-based or functional assay
[3] = target: T1, epitope tagged N-formyl peptide …; experiment: cell-based or functional assay
[4] = target: T2, FPR-like receptor 1 (FPRL1) on …; experiment: cell-based or functional assay

Molecule	IC50 [1]	EC50 of migration of ETFR cells (chemotaxis) [2]	concentration required to induce a change in the ratio of 2 at 340/380 nm fluorescence (Ca^++) in FPR expressing cells [2]	concentration required to induce a change in the ratio of 2 at 340/380 nm fluorescence (Ca^++) in FPR expressing cells [3]	EC50 of migration of FPRL1/293 cells (chemotaxis) [4]	concentration required to induce a change in the ratio of 0.6 at 340/380 nm fluorescence (Ca^++) in FPRL1/293 cells [4]	excess of fMLP needed to desensitize the Ca^++ flux induced by T21/DP107 in FPRL1/293 cells [4]
N-formyl-methionyl-leucyl-phenylalanine (fMLP) (peptide)	1 nM	0.5 nM	1e-10	–	–	–	–
NNLLRAIEAQQHLLQLTVWGIKQLQARILAVERYLKDQ (also: some embodiments acylated, form not given here) [T21/DP107]	–	–	–	1e-05	50 nM	5e-07	–
For-Met-Leu-Phe (also: tritiated (3H) form used as tracer) [N-formyl-methionyl-leucyl-phenylalanine (fMLP)]	–	–	–	–	–	5e-05	1000 fold
